Assays:
[1] = molecular target: T1, tPA (Homo sapiens, UniProt P00750); assay: Binding of active site 125I-labeled tPA to amyloid fibrils or fibrin; conditions: for effect on tPA binding to amyloid fibrils: ε-aminocaproic acid at 0.1 M (100 mM); for t-PA binding relative to wt β1-28 and fibrin controls: fibrils of Charged→Gln β(1-28) variants
Experimental: In this study, D-Tyr-Pro-Arg-chloromethyl ketone (Bachem Bioscience) was radioiodinated by the chloramine-T method and subsequently used to irreversibly bind to the active site of tPA. (Keyt, et al, Anal. Biochem. 206:73-83 (1992)). 1 mCi of I^125 was mixed with YPRck in 1 M Tris-HCL, 0.01% Tween 20 at pH 7.5. To initiate iodination 10 μl of 1 mg/ml Chloramine-T was added. After 1 minute, 20 μl of 1 mg/ml sodium metabisulfite was added to reduce the Chloramine-T and iodide. 15 μl of 1 mg/ml tPA was then added, and the mixture was incubated at room temperature for 1 hour to allow the YPRck to bind to the tPA. Radiolabeled tPA was purified from free iodine and unreacted YPRck using a PD-10 column preequilibrated with PBS and 0.003% Tween 20. The labeled protein was stored at −20° C.
(§1) Synthetic Amyloid Fibril Formation—β1-28 (Chiron Mimotopes Peptide Systems) and β1-40 (Bachem Bioscience) peptides were dissolved in water. Aggregation solution conditions were 1×PBS, 1 mg/ml β-peptide and the pH was adjusted to the theoretical pI of the peptides (5.6 for β1-28 and 4.9 for β1-40). Solutions were kept at room temperature.
Binding of Active Site-labeled tPA to Amyloid Fibrils or to Fibrin—tPA binding was determined by a modification of the method of Higgins and Vehar, Biochem. 26:7786-7791 (1987)).
To confirm that the labeled tPA's protein binding surface was not altered by the radioiodination, it was bound to fibrin by substituting fibrinogen for the fibrils. Fibrin clot formation was initiated by adding 0.4 units/ml (final human thrombin. The remainder of the assay proceeded as above.
Ihibition of kringle-dependent labeled tPA Binding to Amyloid Fibrils and Fibrin Using ε-aminocaproic acid to the binding solutions were set up on the same manner as previously noted except that ε-aminocaproic acid at 0.1 M was included in the conditions.
Previous studies of the interaction of human tissue plasminogen activator with the amyloid β peptide employed a functional plasminogen activation assay (Kingston, I. B. et al., Nature Medicine 1:138-142 (1995); Castro, M. J. M., et al., Analyt. Biochem. 226:225-231 (1995)). However, to understand this interaction more fully, a sensitive and quantitative assay for measuring direct amyloid β peptide binding by t-PA and other fibrin(ogen)-binding proteins (e. g., plasmin) was employed in the present invention. For this purposed a specific probe molecule, D-Tyr-Pro-Arg chloromethyl ketone (YPACK), was radioiodinated with ^125I then reacted with t-PA, plasmin, and thrombin to effect covalent active site modification of their respective protease domains (Keyt, B. A. et al., Analyt. Biochem. 206:73-83 (1992)). Binding of ^125I-YPACK-modified t-PA to fibrin and amyloid β peptide fibrils was carried out by a modification of the method of Higgins, D. L. et al. (Fibrinolysis 6:161-166 (1992)). Incubations of t-PA (0.5 nM) with fibrin or fibrils (100 μg/ml) were in 1X phosphate buffered saline, 0.01% Tween-80, 0.5% bovine serum albumin, pH 7.4, for 60 min. at 37° C. In some instances, ε-amino caproic add (ε-ACA) was also present at a concentration of 100 mM.

[2] = Fibril formation (electron microscopy, light scattering); format: physicochemical; conditions: pH adjusted to theoretical pI
Experimental: Fibril formation was accomplished by taking the peptides up in water. 10×calcium and magnesium free phosphate buffered saline (“PBS”) was added to give a 1×PBS solution (2.7 mM KCl, 1.2 mM KH2PO4, 138 mM NaCl, 8.1 mM Na2HPO4). Fibril formation was obtained by adjusting the pH to the theoretical pI of the β-amyloid peptides. The theoretical pI of β-amyloid peptide 1-42 was 4.9; the theoretical pI of β-amyloid peptide 1-28 was 5.6; the theoretical pI of β-amyloid peptide 1-28 (Dutch) was 6.2. The final concentration of peptide was 1 mg/ml. […] Fibrils were observed immediately or within no more than two days at room temperature. Small aliquots of suspended aggregated peptides were absorbed onto carbon-coated copper grids and stained with 2% (w/v) uranyl acetate. Samples were examined in a JEOL 1200EX electron microscope.
as §1, with “temperature. Fibril formation was confirmed by light scattering and transmission electron microscopy.” for “temperature.”
It had been possible that some of the charged→glutamine peptide variants might not form fibrils. […]

[3] = molecular target: tissue plasminogen activator (Homo sapiens, UniProt P00750); assay: Plasminogen activation stimulation assay (H-D-valyl-L-leucyl-L-lysine-p-nitroanilide), Example 3; format: biochemical; conditions: stimulators at 56 μg/ml
Experimental: To further investigate this relationship, the ability of amyloid β peptide fibrils to stimulate tissue plasminogen activator was studied. For this purpose, plasminogen activation assays were carried out as described by Bennett, W. F. et al., J. Biol. Chem. 266:5191-5201 (1991)). Plasmin generation was monitored by measuring the absorbance change at 405 nm produced by hydrolysis of the substrate, H-D-valyl-L-leucyl-L-lysine-p-nitroanilide. Stimulators tested were present in the assay at a concentration of 56 μg/ml. The apparent first-order rate constants of plasminogen activation t-PA were measured for various stimulators. Rate constants were determined as described by Castro, M. J. M., et al., Analyt. Biochem. 226:225-231 (1995)) using fresh or aged amyloid β peptide fibrils or control proteins.
The twelve β1-28 peptide analogs were used for plasminogen activation and direct binding assays with the fibrinogen-binding proteins t-PA, plasmin, and thrombin, specifically labeled at their respective protease domain active sites as described above. For five of the peptide variants R5Q, […], D23Q, and K28Q, t-PA binding was reduced relative to its binding to both wt β1-28 and fibrin controls, implying that the t-PA binding “footprint” on the fibrils was rather large. […]

[4] = molecular target: T1, tPA; assay: Plasminogen activation by t-PA, initial velocities under steady state conditions (S-2251, Lineweaver-Burk); format: biochemical; design: purchased Genentech, Inc. Activase; conditions: unaggregated peptides

T1 sequence (P00750 36-562): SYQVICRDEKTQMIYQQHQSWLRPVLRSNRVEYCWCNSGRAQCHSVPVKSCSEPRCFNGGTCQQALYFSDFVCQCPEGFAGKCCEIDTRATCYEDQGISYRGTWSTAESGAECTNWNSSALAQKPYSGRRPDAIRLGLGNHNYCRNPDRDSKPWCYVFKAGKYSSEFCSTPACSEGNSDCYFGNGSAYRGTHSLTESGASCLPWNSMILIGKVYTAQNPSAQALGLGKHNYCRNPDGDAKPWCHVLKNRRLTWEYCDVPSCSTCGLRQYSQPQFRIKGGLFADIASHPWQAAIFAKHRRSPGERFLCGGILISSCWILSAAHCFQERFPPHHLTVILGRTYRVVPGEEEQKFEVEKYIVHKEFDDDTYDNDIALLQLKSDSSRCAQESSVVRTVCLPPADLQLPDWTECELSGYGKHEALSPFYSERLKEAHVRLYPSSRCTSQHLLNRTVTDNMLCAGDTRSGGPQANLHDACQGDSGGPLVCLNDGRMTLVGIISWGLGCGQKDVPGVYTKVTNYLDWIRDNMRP
tissue plasminogen activator, sequence (P00750 23-562 limits assumed): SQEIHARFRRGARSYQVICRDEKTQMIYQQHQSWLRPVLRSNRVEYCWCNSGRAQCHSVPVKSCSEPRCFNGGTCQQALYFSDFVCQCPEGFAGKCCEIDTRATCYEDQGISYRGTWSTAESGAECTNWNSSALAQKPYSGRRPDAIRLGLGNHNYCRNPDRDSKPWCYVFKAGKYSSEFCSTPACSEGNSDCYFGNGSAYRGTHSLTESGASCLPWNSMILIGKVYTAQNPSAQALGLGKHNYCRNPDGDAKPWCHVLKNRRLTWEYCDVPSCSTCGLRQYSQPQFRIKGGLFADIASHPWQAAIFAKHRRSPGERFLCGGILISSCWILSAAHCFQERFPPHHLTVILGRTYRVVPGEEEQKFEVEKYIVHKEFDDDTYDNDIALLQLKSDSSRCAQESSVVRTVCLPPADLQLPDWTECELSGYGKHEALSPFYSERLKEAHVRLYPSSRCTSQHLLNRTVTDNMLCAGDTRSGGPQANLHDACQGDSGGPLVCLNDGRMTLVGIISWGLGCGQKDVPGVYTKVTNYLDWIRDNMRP

NCCCCCC(=O)O [ε-aminocaproic acid, reference compound]
effect on tPA binding to amyloid fibrils [1]: capable of competing out amyloid binding
effect on tPA binding to amyloid fibrils ([1]; listed as ε-amino caproic acid): partially blocked

Corticotropin Releasing Factor: control peptide, 41 amino acids
fibril formation [2]: did not form fibrils

DAEFQHDSGYEVHHQKLVFFAEDVGSNK [R5Q]
t-PA binding relative to wt β1-28 and fibrin controls [1]: reduced

DAEFRHDSGYEVHHQKLVFFAEDVGSNQ [K28Q]
stimulation of t-PA-mediated plasminogen activation [3]: profoundly decreased levels of stimulation
t-PA binding relative to wt β1-28 and fibrin controls [1]: reduced

DAEFRHDSGYEVHHQKLVFFAEQVGSNK [D23Q]
t-PA binding relative to wt β1-28 and fibrin controls [1]: reduced

DAEFRHDSGYEVHHQQLVFFAEDVGSNK [K16Q]
stimulation of t-PA-mediated plasminogen activation [3]: enhanced stimulation

Fibrinogen
Km ([4]; Km of t-PA for plasminogen with the stimulator present): 3.3 µM
kcat ([4]; kcat of t-PA with the stimulator present): 0.051 s⁻¹

Growth Hormone Releasing Factor: control peptide, 29 amino acids
fibril formation [2]: did not form fibrils

β 1-40 Amyloid Fibrils: synthetic β1-40 amyloid peptide (Bachem Bioscience), aggregated to fibrils
Kd of t-PA binding to fibrils ([1]; 125I-YPACK-modified t-PA): sub-nanomolar range
% tPA Bound ([1]; about 0.5 nM labeled tPA, 0.1 mg/ml fibrils or fibrin, 1 hour): 62%
tPA binding to amyloid fibrils (qualitative) ([1]; radiolabeled tPA, tPA:fibrin binding as control): binds

— US6471960B1, “Methods for the prevention or treatment of alzheimer's disease” (Rutgers, the State University, priority 1994, dated 2002)
